The chains are these.
B1: QP14501448 (antibody, V domains shown)
VH: EVQLVESGGGLVQPGGSLRLSCAASGFTFSSFGMHWVRQAPGKGLEWVAYISSGSNSIYYVDTVKGRFTISRDNAKNSLYLQMNSLRDEDTAVYYCARNAYYGNSFDYWGQGTLVTVSS
VL: DIVMTQSPDSLAVSLGERATISCKSSQSLLNSGNQKNYLTWYQQKPGQPPKLLIYWASTRESGVPDRFTGSGSGTVFTLTISSLQAEDVAVYFCQNNYYYPLTFGGGTKVEIKR
B2: QP14501446 (antibody, V domains shown)
VH: EVQLVESGGGLVQPGGSLRLSCAASGFTFSSFGMHWVRQAPGKGLEWVAYISSGSNSIYYVDTVKGRFTISRDNAKNSLYLQMNSLRDEDTAVYYCARNAYYGNSFDYWGQGTLVTVSS
VL: DIVMTQSPDSLAVSLGERATINCKSSQSLLNSGNQKNYLTWYQQKPGQPPKLLIYWASTRESGVPDRFSGSGSGTDFTLTISSLQAEDVAVYYCQNNYYYPLTFGGGTKVEIKR
B3: QP14491448 (antibody, V domains shown)
VH: EVQLVESGGGLVQPGGSLRLSCAASGFTFSSFGMHWVRQAPGKGLEWVSYISSGSNSIYYVDTVKGRFTISRDNAKNSLYLQMNSLRDEDTAVYYCARNAYYGNSFDYWGQGTLVTVSS
VL: DIVMTQSPDSLAVSLGERATISCKSSQSLLNSGNQKNYLTWYQQKPGQPPKLLIYWASTRESGVPDRFTGSGSGTVFTLTISSLQAEDVAVYFCQNNYYYPLTFGGGTKVEIKR
B4: QP192193 (antibody, V domains shown)
VH: QVQLQQSGAELVRPGSSVKISCKASGYAFSSYWMNWVKQRPGQGLEWIGQIYPGNGDTTYNGKFKGQATLTADKSSSTVYMQLSSLTSEDSAVYFCARFVKGNAMDYWGQGTSVTVSS
VL: DIVMTQSPSSLTVTAGEKVTMSCKSSQSLLNSGNQKNYLTWYQQNPGQPPKMLIYWASTRESGVPDRFTGSGSGIDFSLTISSVQAEDLALYYCQNAYSYPFTFGSGTKLEIK
B5: QP14511447 (antibody, V domains shown)
VH: EVQLVESGGGLVQPGGSLRLSCAASGFTFSSFGMHWVRQAPGKGLEWVAYISSGSNSIYYVDTVKGRFTISRDNAKNSLYLQMNSLRSEDTAVYYCARNAYYGNSFDYWGQGTLVTVSS
VL: DIVMTQSPDSLAVSLGERATISCKSSQSLLNSGNQKNYLTWYQQKPGQPPKLLIYWASTRESGVPDRFSGSGSGTDFTLTISSLQAEDVAVYFCQNNYYYPLTFGGGTKVEIK
B6: QP14661462 (antibody, V domains shown)
VH: EVQLVQSGAEVKKPGASVKVSCKASGYTFTSYIMHWVKQAPGQGLEWIGYINPYNDGTKYNEKFKGKATLTSDKSTSTVYMELSSLRSEDTAVYCCARLGFTTRNAMDYWGQGTLVTVSS
VL: DIVMTQSPDSLAVSLGERATINCKSSQSLLNSGNQKNYLAWYQQKPGQPPKLLIYGASTRESGVPDRFTGSGSGTDFTLTISSVQAEDVAVYYCQNDHSYPFTFGQGTKLEIK
B7: QP14651461 (antibody, V domains shown)
VH: EVQLVQSGAEVKKPGASVKVSCKASGYTFTSYIMHWVRQAPGQGLEWIGYINPYNDGTKYNEKFKGRVTLTSDKSTSTVYMELSSLRSEDTAVYYCARLGFTTRNAMDYWGQGTLVTVSS
VL: DIVMTQSPDSLAVSLGERATINCKSSQSLLNSGNQKNYLAWYQQKPGQPPKLLIYGASTRESGVPDRFTGSGSGTDFTLTISSLQAEDVAVYYCQNDHSYPFTFGQGTKLEIK
B8: QP14491447 (antibody, V domains shown)
VH: EVQLVESGGGLVQPGGSLRLSCAASGFTFSSFGMHWVRQAPGKGLEWVSYISSGSNSIYYVDTVKGRFTISRDNAKNSLYLQMNSLRDEDTAVYYCARNAYYGNSFDYWGQGTLVTVSS
VL: DIVMTQSPDSLAVSLGERATISCKSSQSLLNSGNQKNYLTWYQQKPGQPPKLLIYWASTRESGVPDRFSGSGSGTDFTLTISSLQAEDVAVYFCQNNYYYPLTFGGGTKVEIK
B9: QP14511446 (antibody, V domains shown)
VH: EVQLVESGGGLVQPGGSLRLSCAASGFTFSSFGMHWVRQAPGKGLEWVAYISSGSNSIYYVDTVKGRFTISRDNAKNSLYLQMNSLRSEDTAVYYCARNAYYGNSFDYWGQGTLVTVSS
VL: DIVMTQSPDSLAVSLGERATINCKSSQSLLNSGNQKNYLTWYQQKPGQPPKLLIYWASTRESGVPDRFSGSGSGTDFTLTISSLQAEDVAVYYCQNNYYYPLTFGGGTKVEIK
B10: QP14501447 (antibody, V domains shown)
VH: EVQLVESGGGLVQPGGSLRLSCAASGFTFSSFGMHWVRQAPGKGLEWVAYISSGSNSIYYVDTVKGRFTISRDNAKNSLYLQMNSLRDEDTAVYYCARNAYYGNSFDYWGQGTLVTVSS
VL: DIVMTQSPDSLAVSLGERATISCKSSQSLLNSGNQKNYLTWYQQKPGQPPKLLIYWASTRESGVPDRFSGSGSGTDFTLTISSLQAEDVAVYFCQNNYYYPLTFGGGTKVEIK
B11: QP14431440 (antibody, V domains shown)
VH: QVQLVQSGAEVKKPGASVKVSCKASGYAFSSYWMNWVRQAPGQGLEWMGQIYPGNGDTTYNGKFKGRVTMTRDTSTSTVYMELSSLRSEDTAVYYCARFVKGNAMDYWGQGTLVTVSS
VL: DIVMTQSPDSLAVSLGERATISCKSSQSLLNSGNQKNYLTWYQQKPGQPPKLLIYWASTRESGVPDRFSGSGSGTDFTLTISSLQAEDVAVYYCQNAYSYPFTFGQGTKLEIK
B12: QP14431439 (antibody, V domains shown)
VH: QVQLVQSGAEVKKPGASVKVSCKASGYAFSSYWMNWVRQAPGQGLEWMGQIYPGNGDTTYNGKFKGRVTMTRDTSTSTVYMELSSLRSEDTAVYYCARFVKGNAMDYWGQGTLVTVSS
VL: DIVMTQSPDSLAVSLGERATINCKSSQSLLNSGNQKNYLTWYQQKPGQPPKLLIYWASTRESGVPDRFSGSGSGTDFTLTISSLQAEDVAVYYCQNAYSYPFTFGQGTKLEIK
B13: QP14631462 (antibody, V domains shown)
VH: QVQLVQSGAEVKKPGASVKVSCKASGYTFTSYIMHWVRQAPGQGLEWMGYINPYNDGTKYNEKFKGRVTMTRDTSTSTVYMELSSLRSEDTAVYYCARLGFTTRNAMDYWGQGTLVTVSS
VL: DIVMTQSPDSLAVSLGERATINCKSSQSLLNSGNQKNYLAWYQQKPGQPPKLLIYGASTRESGVPDRFTGSGSGTDFTLTISSVQAEDVAVYYCQNDHSYPFTFGQGTKLEIK
B14: QP14661460 (antibody, V domains shown)
VH: EVQLVQSGAEVKKPGASVKVSCKASGYTFTSYIMHWVKQAPGQGLEWIGYINPYNDGTKYNEKFKGKATLTSDKSTSTVYMELSSLRSEDTAVYCCARLGFTTRNAMDYWGQGTLVTVSS
VL: DIVMTQSPDSLAVSLGERATINCKSSQSLLNSGNQKNYLAWYQQKPGQPPKLLIYGASTRESGVPDRFSGSGSGTDFTLTISSLQAEDVAVYYCQNDHSYPFTFGQGTKLEIK
B15: QP14381433 (antibody, V domains shown)
VH: EVQLVESGGGLVKPGGSLRLSCAASGFTFSNYAMSWVRQAPGKRLEWVASIISGGRTYYLDSEKGRFTISRDNAKNSLYLQMNSLRAEDTAVYYCTRIYYGNSFDYWGQGTLVTVSS
VL: DIVMTQSPDSLAVSLGERATINCKSSQSLLNSGNQKNYLTWYQQKPGQPPKLLIYWASTRESGVPDRFSGSGSGTDFTLTISSLQAEDVAVYYCQNDYSYPFTFGQGTKLEIK
B16: QP14371433 (antibody, V domains shown)
VH: EVQLVESGGGLVKPGGSLRLSCAASGFTFSNYAMSWVRQAPGKGLEWVASIISGGRTYYLDSEKGRFTISRDNAKNSLYLQMNSLRAEDTAVYYCTRIYYGNSFDYWGQGTLVTVSS
VL: DIVMTQSPDSLAVSLGERATINCKSSQSLLNSGNQKNYLTWYQQKPGQPPKLLIYWASTRESGVPDRFSGSGSGTDFTLTISSLQAEDVAVYYCQNDYSYPFTFGQGTKLEIKR
B17: QP14381435 (antibody, V domains shown)
VH: EVQLVESGGGLVKPGGSLRLSCAASGFTFSNYAMSWVRQAPGKRLEWVASIISGGRTYYLDSEKGRFTISRDNAKNSLYLQMNSLRAEDTAVYYCTRIYYGNSFDYWGQGTLVTVSS
VL: DIVMTQSPDSLAVSLGERATISCKSSQSLLNSGNQKNYLTWYQQKPGQPPKLLIYWASTRESGVPDRFTGSGSGTDFTLTISSLQAEDVAVYYCQNDYSYPFTFGQGTKLEIK
B18: QP14371434 (antibody, V domains shown)
VH: EVQLVESGGGLVKPGGSLRLSCAASGFTFSNYAMSWVRQAPGKGLEWVASIISGGRTYYLDSEKGRFTISRDNAKNSLYLQMNSLRAEDTAVYYCTRIYYGNSFDYWGQGTLVTVSS
VL: DIVMTQSPDSLAVSLGERATISCKSSQSLLNSGNQKNYLTWYQQKPGQPPKLLIYWASTRESGVPDRFSGSGSGTDFTLTISSLQAEDVAVYYCQNDYSYPFTFGQGTKLEIK
B19: QP14631460 (antibody, V domains shown)
VH: QVQLVQSGAEVKKPGASVKVSCKASGYTFTSYIMHWVRQAPGQGLEWMGYINPYNDGTKYNEKFKGRVTMTRDTSTSTVYMELSSLRSEDTAVYYCARLGFTTRNAMDYWGQGTLVTVSS
VL: DIVMTQSPDSLAVSLGERATINCKSSQSLLNSGNQKNYLAWYQQKPGQPPKLLIYGASTRESGVPDRFSGSGSGTDFTLTISSLQAEDVAVYYCQNDHSYPFTFGQGTKLEIK
B20: QP14361433 (antibody, V domains shown)
VH: EVQLVESGGGLVKPGGSLRLSCAASGFTFSNYAMSWVRQAPGKGLEWVSSIISGGRTYYLDSEKGRFTISRDNAKNSLYLQMNSLRAEDTAVYYCTRIYYGNSFDYWGQGTLVTVSS
VL: DIVMTQSPDSLAVSLGERATINCKSSQSLLNSGNQKNYLTWYQQKPGQPPKLLIYWASTRESGVPDRFSGSGSGTDFTLTISSLQAEDVAVYYCQNDYSYPFTFGQGTKLEIK

For 20 molecules, EC50 results are on record in patent US20230183352A1 (published 2023).

The EC50 is the concentration needed to bring the measured effect to its halfway point. Read a high EC50 as lower potency in that assay.

The first assay concerns the target T1, Claudin 18.2 (CLDN18.2), expressed on CHOS-CLDN 18.2 / HEK293-CLDN 18.2 / HCC827-CLDN 18.2 cells (human, UniProt P56856 1-261). In words: cell ELISA. On the technique in general: ELISA stands for enzyme-linked immunosorbent assay.
The molecule B1 gave an EC50 of 0.115 µg/mL.

With B2, the response was half-maximal at 0.109 µg/mL (EC50).

Consider B3, for which it took 0.12 µg/mL to reach a half-maximal effect (EC50).

In turn, B4 had an EC50 of 0.101 µg/mL.

Turning to B5, the EC50 worked out at 0.202 µg/mL.

Molecule B6 displayed an EC50 of 0.538 µg/mL.

In turn, B7 displayed an EC50 of 0.301 µg/mL.

Consider B8, for which the 50% effective concentration (EC50) turned out to be 0.148 µg/mL.

The molecule B9 registered a concentration for a half-maximal effect (EC50) of 0.133 µg/mL. The EC50 values of the last two molecules are within 1.5-fold of each other.

Take B10: the response was half-maximal at 0.0926 µg/mL (EC50).

On to B11, for which the response was half-maximal at 0.124 µg/mL (EC50).

B12: the EC50 worked out at 0.111 µg/mL.

As for B13, the midpoint of the response, the EC50, lay at 0.105 µg/mL.

On to B14, for which the concentration for a half-maximal effect (EC50) came to 0.105 µg/mL.

Another assay has as its target T1, Claudin 18.2 (CLDN18.2), expressed on …. In words: cell ELISA. The source holds these as a separate data set.
As to B15, the response was half-maximal at 0.125 µg/mL (EC50).

B16 displayed an EC50 of 0.108 µg/mL.

Molecule B17 yielded an EC50 of 0.196 µg/mL.

Turning to B18, it took 0.284 µg/mL to reach a half-maximal effect (EC50).

Consider B19, for which the EC50 came out at 0.135 µg/mL.

In turn, B20 yielded an EC50 of 0.112 µg/mL.

Another assay has the same target. Kind of assay: cell ELISA. This is another data set of the same source.
Take B4: a half-maximal response (EC50) required 0.155 µg/mL.
